Experimental data reported in patent US20250084143A1 (INSERM INSTITUT NATIONAL DE LA SANT ET DE LA RECHERCHE M …, published 2025).

Target: T1, biotin-tagged HLA-A*03:01 monomers (immunAware) (human, biotin tag)
T1 construct: Bought recombinant monomer folded with the test peptide; also called HLA-A3; A3
Assay: flow cytometry on streptavidin beads: folding of biotinylated HLA-A*03:01 monomer around the peptide, detected with anti-b2m; 1.2 nM complex

binding result: binds
Binder: RLKPSLVGK (From the SCG5-009 mRNA splice variant) [SCG5-009 193-201 peptide]
